Key:
Test in all cases: flow cytometry on transfected cells, IgG
human CD33 P46F = human CD33 P46F (human, UniProt P20138 18-364)
Experimental: (§1) An alanine scan on human CD33 was performed to the determine the residues on CD33 that are involved in binding to the antibodies investigated. […] Briefly, a mutation library of CD33 was created by high-throughput, site-directed mutagenesis. Each residue was individually mutated to alanine, with alanine codons mutated to serine. The mutant library was arrayed in 384-well microplates and transiently transfected into HEK293-T. Following transfection, cells were incubated with the indicated antibodies (IgG or Fab) at concentrations pre-determined using an independent immunofluorescence titration curve on wild type CD33. […] Binding of each antibody to each mutant clone was determined in duplicates. For each point, background fluorescence was subtracted from the raw data, which were then normalized to antibody reactivity with wild type CD33.
(§2) Antibodies were screened for binding to the human CD33 variants in IgG format. […] For each mutation, background fluorescence was subtracted from the raw data, which were then normalized to antibody reactivity with wild-type CD33.

human CD33 P46D = human CD33 P46D (human, UniProt P20138 18-364)
Experimental: as §1, §2

human CD33 T42N = human CD33 T42N (human, UniProt P20138 18-364)
Experimental: as §1, §2

human CD33 P48K = human CD33 P48K (human, UniProt P20138 18-364)
Experimental: as §1, §2

human CD33 Y49Q = human CD33 Y49Q (human, UniProt P20138 18-364)
Experimental: as §1, §2

human CD33 I47F = human CD33 I47F (human, UniProt P20138 18-364)
Experimental: as §1, §2

human CD33 F44S = human CD33 F44S (human, UniProt P20138 18-364)
Experimental: as §1, §2

human CD33 P48L = human CD33 P48L (human, UniProt P20138 18-364)
Chain of human CD33 P48L (P20138 18-364 P48L limits assumed): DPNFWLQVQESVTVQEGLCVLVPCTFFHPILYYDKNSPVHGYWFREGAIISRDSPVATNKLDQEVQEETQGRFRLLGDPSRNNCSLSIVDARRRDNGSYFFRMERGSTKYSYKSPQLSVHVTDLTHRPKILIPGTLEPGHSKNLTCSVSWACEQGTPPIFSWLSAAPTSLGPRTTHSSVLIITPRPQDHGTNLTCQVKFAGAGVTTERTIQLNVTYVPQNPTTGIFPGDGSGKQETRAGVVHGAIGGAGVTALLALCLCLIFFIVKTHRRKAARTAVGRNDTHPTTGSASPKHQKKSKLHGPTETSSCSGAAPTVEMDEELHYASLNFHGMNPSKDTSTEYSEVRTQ
Experimental: as §1, §2

human CD33 I47E = human CD33 I47E (human, UniProt P20138 18-364)
Chain of human CD33 I47E (P20138 18-364 I47E limits assumed): as the sequence (P20138 18-364 P48L limits assumed) above, with I30E, L31P counted along it
Experimental: as §1, §2

human CD33 P46S = human CD33 P46S (human, UniProt P20138 18-364)
Experimental: as §1, §2

human CD33 I47Y = human CD33 I47Y (human, UniProt P20138 18-364)
Experimental: as §1, §2

human CD33 F44Q = human CD33 F44Q (human, UniProt P20138 18-364)
Experimental: as §1, §2

human CD33 Y49H = human CD33 Y49H (human, UniProt P20138 18-364)
Chain of human CD33 Y49H (P20138 18-364 Y49H limits assumed): as the sequence (P20138 18-364 P48L limits assumed) above, with L31P, Y32H counted along it
Experimental: as §1, §2

human CD33 P48T = human CD33 P48T (human, UniProt P20138 18-364)
Chain of human CD33 P48T (P20138 18-364 P48T limits assumed): as the sequence (P20138 18-364 P48L limits assumed) above, with L31T counted along it
Experimental: as §1, §2

human CD33 Y49V = human CD33 Y49V (human, UniProt P20138 18-364)
Experimental: as §1, §2

human CD33 Y50D = human CD33 Y50D (human, UniProt P20138 18-364)
Chain of human CD33 Y50D (P20138 18-364 Y50D limits assumed): as the sequence (P20138 18-364 P48L limits assumed) above, with L31P, Y33D counted along it
Experimental: as §1, §2

human CD33 Y49T = human CD33 Y49T (human, UniProt P20138 18-364)
Experimental: as §1, §2

human CD33 I47S = human CD33 I47S (human, UniProt P20138 18-364)
Chain of human CD33 I47S (P20138 18-364 I47S limits assumed): as the sequence (P20138 18-364 P48L limits assumed) above, with I30S, L31P counted along it
Experimental: as §1, §2

human CD33 P46L = human CD33 P46L (human, UniProt P20138 18-364)
Experimental: as §1, §2

human CD33 Y49G = human CD33 Y49G (human, UniProt P20138 18-364)
Experimental: as §1, §2

human CD33 I47T = human CD33 I47T (human, UniProt P20138 18-364)
Chain of human CD33 I47T (P20138 18-364 I47T limits assumed): as the sequence (P20138 18-364 P48L limits assumed) above, with I30T, L31P counted along it
Experimental: as §1, §2

human CD33 P48V = human CD33 P48V (human, UniProt P20138 18-364)
Chain of human CD33 P48V (P20138 18-364 P48V limits assumed): as the sequence (P20138 18-364 P48L limits assumed) above, with L31V counted along it
Experimental: as §1, §2

human CD33 P48H = human CD33 P48H (human, UniProt P20138 18-364)
Experimental: as §1, §2

human CD33 F44L = human CD33 F44L (human, UniProt P20138 18-364)
Experimental: as §1, §2

human CD33 F44P = human CD33 F44P (human, UniProt P20138 18-364)
Experimental: as §1, §2

human CD33 F44V = human CD33 F44V (human, UniProt P20138 18-364)
Experimental: as §1, §2

human CD33 Y49I = human CD33 Y49I (human, UniProt P20138 18-364)
Experimental: as §1, §2

human CD33 P46I = human CD33 P46I (human, UniProt P20138 18-364)
Experimental: as §1, §2

human CD33 P48N = human CD33 P48N (human, UniProt P20138 18-364)
Chain of human CD33 P48N (P20138 18-364 P48N limits assumed): as the sequence (P20138 18-364 P48L limits assumed) above, with L31N counted along it
Experimental: as §1, §2

human CD33 P48M = human CD33 P48M (human, UniProt P20138 18-364)
Chain of human CD33 P48M (P20138 18-364 P48M limits assumed): as the sequence (P20138 18-364 P48L limits assumed) above, with L31M counted along it
Experimental: as §1, §2

human CD33 F44I = human CD33 F44I (human, UniProt P20138 18-364)
Chain of human CD33 F44I (P20138 18-364 F44I limits assumed): as the sequence (P20138 18-364 P48L limits assumed) above, with F27I, L31P counted along it
Experimental: as §1, §2

human CD33 I47P = human CD33 I47P (human, UniProt P20138 18-364)
Chain of human CD33 I47P (P20138 18-364 I47P limits assumed): as the sequence (P20138 18-364 P48L limits assumed) above, with I30P, L31P counted along it
Experimental: as §1, §2

human CD33 P46Y = human CD33 P46Y (human, UniProt P20138 18-364)
Experimental: as §1, §2

human CD33 P48F = human CD33 P48F (human, UniProt P20138 18-364)
Chain of human CD33 P48F (P20138 18-364 P48F limits assumed): as the sequence (P20138 18-364 P48L limits assumed) above, with L31F counted along it
Experimental: as §1, §2

human CD33 Y50N = human CD33 Y50N (human, UniProt P20138 18-364)
Experimental: as §1, §2

human CD33 Y49D = human CD33 Y49D (human, UniProt P20138 18-364)
Experimental: as §1, §2

human CD33 F44T = human CD33 F44T (human, UniProt P20138 18-364)
Experimental: as §1, §2

human CD33 F43L = human CD33 F43L (human, UniProt P20138 18-364)
Experimental: as §1, §2

Chain of human CD33 T42N (P20138 18-364 T42N limits assumed): as the sequence (P20138 18-364 P48L limits assumed) above, with T25N, L31P counted along it

Mean % WT Binding (human CD33 P46F) [% WT binding] | Mean % WT Binding (human CD33 P46D) [% WT binding] | Mean % WT Binding (human CD33 T42N) [% WT binding] | Mean % WT Binding (human CD33 P48K) [% WT binding] | Mean % WT Binding (human CD33 Y49Q) [% WT binding] | Mean % WT Binding (human CD33 I47F) [% WT binding] | Mean % WT Binding (human CD33 F44S) [% WT binding] | Mean % WT Binding (human CD33 P48L) [% WT binding] | Mean % WT Binding (human CD33 I47E) [% WT binding] | Mean % WT Binding (human CD33 P46S) [% WT binding] | Mean % WT Binding (human CD33 I47Y) [% WT binding] | Mean % WT Binding (human CD33 F44Q) [% WT binding] | Mean % WT Binding (human CD33 Y49H) [% WT binding] | Mean % WT Binding (human CD33 P48T) [% WT binding] | Mean % WT Binding (human CD33 Y49V) [% WT binding] | Mean % WT Binding (human CD33 Y50D) [% WT binding] | Mean % WT Binding (human CD33 Y49T) [% WT binding] | Mean % WT Binding (human CD33 I47S) [% WT binding] | Mean % WT Binding (human CD33 P46L) [% WT binding] | Mean % WT Binding (human CD33 Y49G) [% WT binding] | other results | Binder
92.6 | 104 | 93.5 | 89.4 | 115 | 105 | 86.1 | 104 | 122 | 110 | 105 | 102 | 118 | 92.6 | 121 | 129 | 121 | 91 | 107 | 121 | Mean % WT Binding (human CD33 I47T): 97.2 % WT binding; Mean % WT Binding (human CD33 P48V): 105 % WT binding; Mean % WT Binding (human CD33 P48H): 94.4 % WT binding; Mean % WT Binding (human CD33 F44L): 104 % WT binding; Mean % WT Binding (human CD33 F44P): 88 % WT binding; Mean % WT Binding (human CD33 F44V): 98.9 % WT binding; Mean % WT Binding (human CD33 Y49I): 113 % WT binding; Mean % WT Binding (human CD33 P46I): 98.5 % WT binding; Mean % WT Binding (human CD33 P48N): 98.4 % WT binding; Mean % WT Binding (human CD33 P48M): 103 % WT binding; Mean % WT Binding (human CD33 F44I): 93.1 % WT binding; Mean % WT Binding (human CD33 I47P): 114 % WT binding; Mean % WT Binding (human CD33 P46Y): 79.9 % WT binding; Mean % WT Binding (human CD33 P48F): 93.8 % WT binding; Mean % WT Binding (human CD33 Y50N): 108 % WT binding; Mean % WT Binding (human CD33 Y49D): 117 % WT binding; Mean % WT Binding (human CD33 F44T): 93.9 % WT binding; Mean % WT Binding (human CD33 F43L): 87.9 % WT binding | Refmab #6 (antibody, human IgG1, V domains shown) VH: QVQLQQPGAEVVKPGASVKMSCKASGYTFTSYYIHWIKQTPGQGLEWVGVIYPGNDDISYNQKFQGKATLTADKSSTTAYMQLSSLTSEDSAVYYCAREVRLRYFDVWGQGTTVTVSS VL: EIVLTQSPGSLAVSPGERVTMSCKSSQSVFFSSSQKNYLAWYQQIPGQSPRLLIYWASTRESGVPDRFTGSGSGTDFTLTISSVQPEDLAIYYCHQYLSSRTFGQGTKLEIK
62 | 76 | 91.1 | 58.7 | 2.3 | 90.5 | 104 | 18.9 | 89.1 | 98.7 | 94.5 | 93.9 | 2.4 | 91.4 | 0.9 | 2.5 | 0.5 | 98.2 | 87.2 | 0.8 | Mean % WT Binding (human CD33 I47T): 98.4 % WT binding; Mean % WT Binding (human CD33 P48V): 53.5 % WT binding; Mean % WT Binding (human CD33 P48H): 7.4 % WT binding; Mean % WT Binding (human CD33 F44L): 109 % WT binding; Mean % WT Binding (human CD33 F44P): 114 % WT binding; Mean % WT Binding (human CD33 F44V): 97.7 % WT binding; Mean % WT Binding (human CD33 Y49I): 0.5 % WT binding; Mean % WT Binding (human CD33 P46I): 100 % WT binding; Mean % WT Binding (human CD33 P48N): 4.4 % WT binding; Mean % WT Binding (human CD33 P48M): 31.4 % WT binding; Mean % WT Binding (human CD33 F44I): 106 % WT binding; Mean % WT Binding (human CD33 I47P): 4.9 % WT binding; Mean % WT Binding (human CD33 P46Y): 48 % WT binding; Mean % WT Binding (human CD33 P48F): 6 % WT binding; Mean % WT Binding (human CD33 Y50N): 3.2 % WT binding; Mean % WT Binding (human CD33 Y49D): 1.7 % WT binding; Mean % WT Binding (human CD33 F44T): 92.4 % WT binding; Mean % WT Binding (human CD33 F43L): 96.3 % WT binding | Refmab #5 (antibody, human IgG1, V domains shown) VH: QVQLVQSGAEVKKPGASVKVSCKASGYTFTNYDINWVRQAPGQGLEWIGWIYPGDGSTKYNEKFKAKATLTADTSTSTAYMELRSLRSDDTAVYYCASGYEDAMDYWGQGTTVTVSS VL: DIQMTQSPSSLSASVGDRVTINCKASQDINSYLSWFQQKPGKAPKTLIYRANRLVDGVPSRFSGSGSGQDYTLTISSLQPEDFATYYCLQYDEFPLTFGGGTKVEIK
